Test results reported in US20210284746A1 (NGM BIOPHARMACEUTICALS, published 2021).

Each binder was assayed against T1, soluble human GCGR extracellular domain (human, UniProt P47871 26-136, limits assumed) (assay: SPR (Biacore), purified antibody re-tested; format as described for the screen: antibody captured by anti-mouse Fc, soluble human GCGR extracellular domain as analyte, 25 C).
T1 construct: also called soluble GCGR; glucagon receptor extracellular domain
Protocol: In addition, supernatants were screened for binding to human GCGR using a Biacore SPR system. Briefly, anti-mouse Fc antibody (Sigma-Aldrich) was immobilized on all four flow cells of a CM5 chip using amine coupling reagents (GE Healthcare LifeSciences). Hybridoma supernatants were diluted three-fold with PBS-P buffer (PBS containing 0.005% P20-PBS-P) and injected for 30 seconds over flow cells 2, 3 and 4 to capture the test antibodies and using flow cell 1 as a reference. The next step was an injection of soluble human GCGR extracellular domain (100 nM in PBS-P buffer) at a flow rate of 50 μL/min and monitoring of the binding kinetics at 25° C. Kinetic data were collected over time and fit using the simultaneous global fit equation to yield affinity constants (KD values) for each antibody.

T1 sequence (P47871 26-136 limits assumed): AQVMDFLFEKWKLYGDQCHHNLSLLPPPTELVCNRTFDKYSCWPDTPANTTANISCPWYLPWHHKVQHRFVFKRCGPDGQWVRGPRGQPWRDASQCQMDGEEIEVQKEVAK

Kd [pM]	Binder
200	6B5 (antibody, V domains shown, Mouse hybridoma antibody, purified; also called anti-GCGR antibody 6B5) VH: QVQLQQSGTELVRPGTSVKISCKASGFTFTNHWLGWVKQRPGHGLEWIGDIYPGGYYINYNEKFKGKATLTADTSSSTAYMQLSSLTSEDSAVYFCARHTNYGSDYWGQGTTLTVSS VL: DVLMTQIPLSLPVSLGDQASISCRSSQSIVDSYGNTFLEWYLQKPGQSPKLLIYKVSNRLSGVPDRFSGTGAGTDFTLKISRVEAEDLGIYYCFQGSHVPWTFGGGTKLEIK
600	14F4 (antibody, V domains shown, Mouse hybridoma antibody, purified; also called anti-GCGR antibody 14F4) VH: QVQLQQSGAELVRPGTSVNMSCKATGYTFTNYWIGWVKQRPGHGLEWIGDIFPGGFYSNYNEKFKGKATLTTDTSSSTGYMQLSSLTSEDSAIYYCARIWDRGFDYWGQGTTLTVSS VL: DVLMTQSPLSLPVSLGDQASISCRSSQSIVDSYGNTYLEWYLQKPGQSPKLLIYKVSNRFSGVPDRFSGSGSGTDFTLKISRVEAEDRGLYYCFQGSHVPYTFGGGTKLEIK
200	13G9 (antibody, V domains shown, Mouse hybridoma antibody, purified; also called anti-GCGR antibody 13G9) VH: QVQLQQSGAELVRPGTSVKISCKASGYTFTNYWLGWVKQRPGHGLEWIGDIYPGGDYNNYNGKFKGKATLTADTSSSTAYIQLSSLTSEDSAVYFCVRSDDGYSWGQGTTLTVSS VL: DVLMTQTPLSLPVSLGDQASISCRSSQSIVDSYGNTYLEWYQQKPGQSPTLLIYKVSNRFAGVPDRFSGSGSGTDFTLKISRVEAEDLGVYYCFQGSHIPWTFGGGTKVEIK
